Measured values from patent US12551583B2, “Radiolabeled ligands for targeted PET/SPECT imaging and methods of their use” (MEMORIAL SLOAN KETTERING CANCER CENTER, priority 2016, dated 2026).

System: 4T1 orthotopic tumor-bearing BALB/c mice
Assay: in vivo
Settings: mouse; for biodistribution, Blood / biodistribution, Bone / biodistribution, Brain / biodistribution, Heart / biodistribution, Kidneys / biodistribution, L. intestine / biodistribution, Liver / biodistribution, Lungs / biodistribution, Muscle / biodistribution, Pancreas / biodistribution, S. intestine / biodistribution, Skin / biodistribution, Spleen / biodistribution, Stomach / biodistribution, Tumor (4T1 tumoral uptake): iv, 4 h
Method: 4T1 orthotopic BALB/c mouse model. The cells were removed from the flasks, concentrated, and resuspended in minimal media for cell counting. The cells were then diluted to contain approximately 1 million cells in 30 μL of media (for orthotopic allografts). Following an MSKCC Institutional Animal Care and Use Committee approved protocol, 8-10 week old BALB/c mice (Charles River Laboratories, Wilmington, MA) were surgically implanted with one million 4T1 cancer cells into the first or the last mammary fat pad of the right side of the animal using aseptic surgical techniques and sterile staple closures while the mice were under anesthetic. Additionally, mice were given injections of meloxicam (24 h pain killer) in the scruff and bupivacaine intradermally prior to surgical incisions. One day post surgery, the mice were again given meloxicam and checked to ensure that the closure was healing. Two and three days post surgery, the mice were checked to ensure that the animals were healthy and recovering well from the surgery. Five to seven days post surgery, the staples were removed. Five to nine days post surgery, the mice were injected with 50-75 μCi (0.9-0.4 nmol) of the respective radiopharmaceutical for in vivo biodistribution or 500-600 μCi (9-11 nmol) for in vivo imaging. The mice receiving ^64Cu-NOTA-pHLIP were sacrificed at 1, 2, 4, 12, 24, 36, and 48 h; the mice receiving [^18F]—AlF-NOTA-pHLIP were sacrificed at 0.5, 1, 2, 4, 6 and 8 h. The 4T1 tumors in this study were purposely used 5-9 days after inoculation to ensure lower tumoral pH. Animal models. Animal studies were conducted according to MSKCC IACUC-approved animal protocol. 4T1 (orthotopic breast cancer allografts of 1×10^6 cells surgically implanted in the mammary fat pad) and B16-F10 (orthotopic melanoma allografts of 1×10^5 cells injected intradermally on the shoulder) tumors were orthotopically inoculated in media in female BALB/c and C57Bl/6 mice (Charles River Laboratories (CRL)), respectively. Additionally, PC3 (3×10^6 cells) or LNCaP (3-6×10^6 cells) tumors were subcutaneously xenografted on the shoulder of athymic nude male mice (CRL). Mice were used once tumor volumes were approximately 90-300 mm^3. In vivo animal PET imaging and biodistribution. Mice were injected with radiolabeled NOTA-pHLIP derivatives i.v. (500-700 μCi/mouse for PET or SPECT imaging studies and 25-100 μCi/mouse for biodistribution studies). All injections were less than 200 μL with <10% EtOH in sterile PBS. PET images were obtained with the mice under anesthesia in an Inveon PET-CT or microPET Focus 120 (Siemens) at 0.5-48 h p.i. All images were analyzed using ASIPro VM (Concorde Microsystems). SPECT images were obtained with the mice under anesthesia in a NanoSPECT/CT Plus at 4-24 h p.i. All SPECT images were reconstructed using HiSPECT and analyzed using InVivoScope. Dissections for ex vivo biodistribution were performed on mice after CO2 asphyxiation or cervical dislocation while anesthetized at reported time points. Weight of the syringe prior to injection and after injection was used to determine the mass of injectate. Activity of the syringe prior to injection and after injection was used to determine the percent of injectate administered. The mass injected was corrected by the percent of radioactivity injected. Four to five aliquots (10 μL) were weighed and counted as internal standards for each study. All of the collected organs were counted using an automatic gamma counter (Wizard 3″, PerkinElmer, Waltham, MA). The total injected dose was found as the mass injected dose×fraction radioactivity injected×internal standard average counts/g. The percent injected dose (% ID) was determined as the counts for the tissue×100/total injected dose. The % ID/g was calculated as the % ID/tissue weight. The average and standard deviation of the % ID and % ID/g was determined using normal methods (n−1) for each set of mice.

Compound | biodistribution, Blood | biodistribution, Bone | biodistribution, Brain | biodistribution, Heart | biodistribution, Kidneys | biodistribution, L. intestine | biodistribution, Liver | biodistribution, Lungs | biodistribution, Muscle | biodistribution, Pancreas | biodistribution, S. intestine | biodistribution, Skin | biodistribution, Spleen | biodistribution, Stomach | biodistribution, Tumor (4T1 tumoral uptake) | biodistribution, Tumor (4T1 tumoral uptake) (female, BALB/c) | kidneys-to-large intestine ratio
CC(C)C[C@@H](NC(=O)[C@@H](CC(C)C)NC(=O)[C@@H](CC(=O)O)NC(=O)[C@@H](CC(C)C)NC(=O)[C@@H](CC(C)C)NC(=O)[C@@H](CC(C)C)NC(=O)[C@H](NC(=O)[C@@H](CC(=O)O)NC(=O)[C@H](NC(=O)[C@H]1CCCN1C(=O)[C@@H](Cc1ccccc1)NC(=O)[C@@H](CC(C)C)NC(=O)[C@@H](CC(C)C)NC(=O)[C@@H](CC(=O)O)NC(=O)[C@@H](CC(C)C)NC(=O)[C@@H](Cc1ccc(O)cc1)NC(=O)[C@@H](C)NC(=O)[C@@H](CCCNC(=N)N)NC(=O)[C@@H](Cc1c[nH]c2ccccc12)NC(=O)[C@H]1CCCN1C(=O)[C@@H](CC(N)=O)NC(=O)[C@@H](CCC(N)=O)NC(=O)[C@@H](CC(=O)O)NC(=O)[C@@H](CC(=O)O)NC(=O)[C@@H](CS)NC(=O)[C@@H](C)NC(=S)Nc1ccc(CC2CN(CC(=O)O)CCN(CC(=O)O)CCN2CC(=O)O)cc1)[C@H](C)O)[C@H](C)O)C(=O)N[C@H](Cc1c[nH]c2ccccc12)C(=O)O (single isomer, unassigned) [^64Cu-NOTA-Var3, metal not drawn] | 1.371 ± 0.244 % ID/g | 0.339 ± 0.018 % ID/g | 0.063 ± 0.011 % ID/g | 0.49 ± 0.05 % ID/g | 7.165 ± 1.126 % ID/g | 7.45 ± 2.73 % ID/g | 1.034 ± 0.150 % ID/g | 1.420 ± 0.117 % ID/g | 0.171 ± 0.017 % ID/g | 0.279 ± 0.041 % ID/g | 0.320 ± 0.042 % ID/g | 0.775 ± 0.102 % ID/g | 0.340 ± 0.032 % ID/g | 0.194 ± 0.050 % ID/g | 0.649 ± 0.091 % ID/g |  | 
CC(C)C[C@@H](NC(=O)[C@@H](CC(C)C)NC(=O)[C@@H](CC(=O)O)NC(=O)[C@@H](CC(C)C)NC(=O)[C@@H](CC(C)C)NC(=O)[C@@H](CC(C)C)NC(=O)[C@H](NC(=O)[C@@H](CC(=O)O)NC(=O)[C@H](NC(=O)[C@H]1CCCN1C(=O)[C@@H](Cc1ccccc1)NC(=O)[C@@H](CC(C)C)NC(=O)[C@@H](CC(C)C)NC(=O)[C@@H](CC(=O)O)NC(=O)[C@@H](CC(C)C)NC(=O)[C@@H](Cc1ccc(O)cc1)NC(=O)[C@@H](C)NC(=O)[C@@H](CCCNC(=N)N)NC(=O)[C@@H](Cc1c[nH]c2ccccc12)NC(=O)[C@H]1CCCN1C(=O)[C@@H](CC(N)=O)NC(=O)[C@@H](CCC(N)=O)NC(=O)[C@@H](CC(=O)O)NC(=O)[C@@H](CC(=O)O)NC(=O)[C@@H](CSC1CC(=O)N(CCNC(=O)CN2CCN(CC(=O)O)CCN(CC(=O)O)CC2)C1=O)NC(=O)[C@@H](C)N)[C@H](C)O)[C@H](C)O)C(=O)N[C@H](Cc1c[nH]c2ccccc12)C(=O)O (single isomer, unassigned) [^68Ga-NO2A-cysVar3, metal not drawn] |  |  |  |  |  |  |  |  |  |  |  |  |  |  |  | 6±2 % ID/g | 
CC(C)C[C@@H](NC(=O)[C@@H](CCC(=O)O)NC(=O)[C@@H](CC(C)C)NC(=O)[C@@H](CC(C)C)NC(=O)[C@@H](CC(C)C)NC(=O)[C@H](NC(=O)[C@@H](CCC(=O)O)NC(=O)[C@H](NC(=O)[C@H]1CCCN1C(=O)[C@@H](Cc1ccccc1)NC(=O)[C@@H](CC(C)C)NC(=O)[C@@H](Cc1c[nH]c2ccccc12)NC(=O)[C@@H](CCC(=O)O)NC(=O)[C@@H](CC(C)C)NC(=O)[C@@H](Cc1ccc(O)cc1)NC(=O)[C@@H](CCCNC(=N)N)NC(=O)[C@@H](C)NC(=O)[C@@H](Cc1c[nH]c2ccccc12)NC(=O)[C@H]1CCCN1C(=O)[C@@H](CC(N)=O)NC(=O)[C@@H](CCC(N)=O)NC(=O)[C@@H](CCC(=O)O)NC(=O)[C@@H](CCC(=O)O)NC(=O)[C@@H](CSC1CC(=O)N(CCNC(=O)CN2CCN(CC(=O)O)CCN(CC(=O)O)CC2)C1=O)NC(=O)[C@@H](C)N)[C@H](C)O)[C@H](C)O)C(=O)O (single isomer, unassigned) [^64Cu-NO2A-cysVar7, metal not drawn] | 2.31 ± 0.18 % ID/g | 1.57 ± 0.18 % ID/g | 0.25 ± 0.02 % ID/g | 2.68 ± 0.33 % ID/g | 95.5 ± 11.9 % ID/g | 8.19 ± 0.85 % ID/g | 15.6 ± 1.58 % ID/g | 4.21 ± 0.23 % ID/g | 0.64 ± 0.07 % ID/g | 1.84 ± 0.10 % ID/g | 6.37 ± 0.11 % ID/g | 2.59 ± 0.05 % ID/g | 3.31 ± 0.24 % ID/g | 3.33 ± 0.31 % ID/g | 9.07 ± 1.81 % ID/g |  | 
CC(C)C[C@@H](NC(=O)[C@@H](CC(C)C)NC(=O)[C@@H](CC(=O)O)NC(=O)[C@@H](CC(C)C)NC(=O)[C@@H](CC(C)C)NC(=O)[C@@H](CC(C)C)NC(=O)[C@H](NC(=O)[C@@H](CC(=O)O)NC(=O)[C@H](NC(=O)[C@H]1CCCN1C(=O)[C@@H](Cc1ccccc1)NC(=O)[C@@H](CC(C)C)NC(=O)[C@@H](CC(C)C)NC(=O)[C@@H](CC(=O)O)NC(=O)[C@@H](CC(C)C)NC(=O)[C@@H](Cc1ccc(O)cc1)NC(=O)[C@@H](C)NC(=O)[C@@H](CCCNC(=N)N)NC(=O)[C@@H](Cc1c[nH]c2ccccc12)NC(=O)[C@H]1CCCN1C(=O)[C@@H](CC(N)=O)NC(=O)[C@@H](CCC(N)=O)NC(=O)[C@@H](CC(=O)O)NC(=O)[C@@H](CC(=O)O)NC(=O)[C@@H](CS)NC(=O)[C@@H](C)NC(=S)Nc1ccc(CC2CN(CC(=O)O)CCN(CC(=O)O)CCN2CC(=O)O)cc1)[C@H](C)O)[C@H](C)O)C(=O)N[C@H](Cc1c[nH]c2ccccc12)C(=O)O (single isomer, unassigned) [[^18F]—AlF-NOTA-Var3] | 2.201 ± 0.374 % ID/g | 0.540 ± 0.119 % ID/g | 0.107 ± 0.023 % ID/g | 0.78 ± 0.08 % ID/g | 8.237 ± 1.106 % ID/g | 22.05 ± 2.46 % ID/g | 0.923 ± 0.153 % ID/g | 2.217 ± 0.380 % ID/g | 0.282 ± 0.055 % ID/g | 0.332 ± 0.020 % ID/g | 0.927 ± 0.152 % ID/g | 1.126 ± 0.115 % ID/g | 0.469 ± 0.093 % ID/g | 0.482 ± 0.223 % ID/g | 0.923 ± 0.119 % ID/g |  | 0.52±0.15
